Source: the supplement of paper PMC10724198
± gives the standard deviation of the averaged measurements.

System: Saccharomyces cerevisiae
Experiment: protein stability index of tFT-peptide fusion (C-terminal peptide) (PSI (0-1 scale)); higher = more stable (slower turnover)
Settings: temperature: 30 C
Procedure: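 MPS profiling in S. cerevisiae of the yeast C-terminome library: the last 12 aa of each annotated ORF are fused to the C-terminus of a sfGFP-mCherry timer, after a GGGS linker. Cells are FACS-sorted into 8 mCherry/sfGFP bins and deep-sequenced. PSI runs from 0 (unstable) to 1 (stable); wild type and das1Δ backgrounds, two technical replicates each.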

[1] = genetic background: das1 deletion

Row | Sequence | protein stability index [1] | protein stability index (genetic background: wild type)
1 | ASKESSKEDVAN [MUM2 C-terminal 12 aa] | 0.69 ± 0.0096 | 0.661 ± 0.032
2 | VDMTSIFDFMLN [POL1 C-terminal 12 aa] | 0.7408 ± 0.0055 | 0.709 ± 0.025
3 | DSNTGGIIASIF [YKL104W-A C-terminal 12 aa] | 0.702 ± 0.027 | 0.696 ± 0.027
4 | SEPVKQVLDSKE [NMA2 C-terminal 12 aa] | 0.749 ± 0.039 | 0.728 ± 0.078
5 | YNINHRKSVNSV [TDA9 C-terminal 12 aa] | 0.706 ± 0.0094 | 0.6634 ± 0.0026
6 | EAQLSCNYEPLP [COS10 C-terminal 12 aa] | 0.707 ± 0.021 | 0.673 ± 0.0098
7 | SYEIFEGSKKVM [CET1 C-terminal 12 aa] | 0.699 ± 0.033 | 0.6785 ± 0.0039
8 | IPNIFGKFTVTS [YKL091C C-terminal 12 aa] | 0.697 ± 0.0085 | 0.683 ± 0.013
9 | EANLKVLNGLEI [YPR148C C-terminal 12 aa] | 0.687 ± 0.024 | 0.667 ± 0.011
10 | EELRPDTLESEL [REC107 C-terminal 12 aa] | 0.683 ± 0.0093 | 0.6742 ± 0.0014
11 | VRVPKKSKKLKK [PDR10 C-terminal 12 aa] | 0.7169 ± 0.0069 | 0.705 ± 0.012
12 | EMLGDKVNKKGI [SOK1 C-terminal 12 aa] | 0.727 ± 0.0085 | 0.67 ± 0.012
13 | DVQGICLRNDKK [SLX4 C-terminal 12 aa] | 0.684 ± 0.011 | 0.651 ± 0.008
14 | IFHELKRQNSKN [RGD2 C-terminal 12 aa] | 0.739 ± 0.035 | 0.717 ± 0.052
15 | GGGVLQLISYIL [YSY6 C-terminal 12 aa] | 0.706 ± 0.0057 | 0.656 ± 0.015
16 | VMLFSSNHQALG [MAG2 C-terminal 12 aa] | 0.704 ± 0.014 | 0.693 ± 0.014
17 | IHKENKEFYLIL [YGL118C C-terminal 12 aa] | 0.703 ± 0.015 | 0.6731 ± 0.00094
18 | KLDVDDEENEGF [MRD1 C-terminal 12 aa] | 0.684 ± 0.029 | 0.653 ± 0.011
19 | RLLSLAQPPVNF [YER165C-A C-terminal 12 aa] | 0.7584 ± 0.0037 | 0.703 ± 0.04
20 | VENTTVDFNYDM [YLR179C C-terminal 12 aa] | 0.69 ± 0.016 | 0.681 ± 0.03
21 | EKGIFAGDINSD [COX12 C-terminal 12 aa] | 0.7005 ± 0.0047 | 0.726 ± 0.029

Row | Sequence | protein stability index [1] | protein stability index (genetic background: wild type)
22 | AFKKAQAEKSKK [NOP12 C-terminal 12 aa] | 0.699 ± 0.054 | 0.73 ± 0.085
23 | LYVCIYISAFIK [FYV12 C-terminal 12 aa] | 0.137 ± 0.019 | 0.143 ± 0.0053
24 | LSHKGIKHLNIT [YGR266W C-terminal 12 aa] | 0.702 ± 0.022 | 0.68 ± 0.057
25 | KRKRRKVRARSK [RPL41A C-terminal 12 aa] | 0.7678 ± 0.006 | 0.764 ± 0.066
26 | PDMIEELDLHED [GPD1 C-terminal 12 aa] | 0.716 ± 0.031 | 0.749 ± 0.1
27 | VYDYQYIYKGKQ [SIA1 C-terminal 12 aa] | 0.701 ± 0.016 | 0.698 ± 0.016
28 | ILDLDPRTEAYC [YGL260W C-terminal 12 aa] | 0.733 ± 0.02 | 0.691 ± 0.013
29 | FASGKPIKKVKN [DYS1 C-terminal 12 aa] | 0.698 ± 0.0083 | 0.706 ± 0.016
30 | ALNTYSSGFEIA [GID10 C-terminal 12 aa] | 0.661 ± 0.0013 | 0.676 ± 0.02
31 | EEESTTSENLHF [RSM25 C-terminal 12 aa] | 0.699 ± 0.0097 | 0.69 ± 0.025
32 | NKHDLHLRPETY [YAR010C C-terminal 12 aa] | 0.658 ± 0.018 | 0.678 ± 0.021
33 | NVDDAYSRVFGI [MPS2 C-terminal 12 aa] | 0.719 ± 0.011 | 0.673 ± 0.025
34 | SLSSRGKIFSST [EFR3 C-terminal 12 aa] | 0.698 ± 0.01 | 0.657 ± 0.011
35 | GKNQWFFSKLRF [RPL27A C-terminal 12 aa] | 0.707 ± 0.0096 | 0.683 ± 0.013
36 | ETVGYEAYLENK [ADE2 C-terminal 12 aa] | 0.685 ± 0.014 | 0.661 ± 0.013
37 | EYHQEFLHKHVR [CWC15 C-terminal 12 aa] | 0.726 ± 0.035 | 0.662 ± 0.015
38 | AGHSNTLQVSTV [CDC19 C-terminal 12 aa] | 0.705 ± 0.0082 | 0.687 ± 0.014
39 | RRGDMCDVKENI [PUS7 C-terminal 12 aa] | 0.6678 ± 0.0015 | 0.677 ± 0.031
40 | ECYLITILWLHK [TDA2 C-terminal 12 aa] | 0.256 ± 0.031 | 0.289 ± 0.0072
41 | RRTSSISTYLIL [YBL107W-A C-terminal 12 aa] | 0.735 ± 0.027 | 0.662 ± 0.043
42 | FVAYTTLTFKKT [YMR001C-A C-terminal 12 aa] | 0.6649 ± 0.0001 | 0.67 ± 0.037

Row | Sequence | protein stability index [1] | protein stability index (genetic background: wild type)
43 | LKTIAAVFSVRV [YJR114W C-terminal 12 aa] | 0.612 ± 0.0077 | 0.629 ± 0.022
44 | AQLLAYLMHKSN [LPL1 C-terminal 12 aa] | 0.714 ± 0.013 | 0.252 ± 0.013
45 | LPEAPSSQPLQA [TIM17 C-terminal 12 aa] | 0.674 ± 0.013 | 0.696 ± 0.03
46 | LKDLEKLGWKDE [YGR054W C-terminal 12 aa] | 0.695 ± 0.013 | 0.666 ± 0.022
47 | EDSHYGNAKKVT [FPS1 C-terminal 12 aa] | 0.708 ± 0.0097 | 0.688 ± 0.011
48 | SHMILYQQQECY [YER181C C-terminal 12 aa] | 0.451 ± 0.0097 | 0.46 ± 0.011
49 | RINQDIKKVKLL [EMP46 C-terminal 12 aa] | 0.6957 ± 0.0047 | 0.145 ± 0.016
50 | QDGIKEAASALA [INO80 C-terminal 12 aa] | 0.6794 ± 0.0025 | 0.665 ± 0.04
51 | VLVCFQTFILLQ [YDL032W C-terminal 12 aa] | 0.152 ± 0.012 | 0.162 ± 0.0082
52 | QQLQSPTAPPTE [COX14 C-terminal 12 aa] | 0.727 ± 0.008 | 0.694 ± 0.038
53 | DMEMEAIAAERD [HMF1 C-terminal 12 aa] | 0.714 ± 0.03 | 0.706 ± 0.031
54 | ANLRAYFGPGFT [BUD6 C-terminal 12 aa] | 0.719 ± 0.017 | 0.691 ± 0.0094
55 | IQEDSPVMDNNT [FAP1 C-terminal 12 aa] | 0.722 ± 0.041 | 0.674 ± 0.036
56 | EMNNIIAASRRH [RPL36A C-terminal 12 aa] | 0.701 ± 0.0077 | 0.713 ± 0.048
57 | VNFDIEEEQEGQ [JJJ3 C-terminal 12 aa] | 0.685 ± 0.011 | 0.791 ± 0.071
58 | YWALGVALTGSK [YDR417C C-terminal 12 aa] | 0.6933 ± 0.0046 | 0.693 ± 0.029
59 | FEVMKFVNGLKV [RFX1 C-terminal 12 aa] | 0.5484 ± 0.0045 | 0.5872 ± 0.0047
60 | QGALDSLLNGDV [DSK2 C-terminal 12 aa] | 0.685 ± 0.03 | 0.701 ± 0.019
61 | NDTEHVTLHTNT [YDL228C C-terminal 12 aa] | 0.711 ± 0.0095 | 0.688 ± 0.031
62 | ELTSSDDCKDFI [YDR124W C-terminal 12 aa] | 0.7025 ± 0.0028 | 0.652 ± 0.034
63 | FYSLCEKGGYLK [BPT1 C-terminal 12 aa] | 0.679 ± 0.014 | 0.66733 ± 0.00062

Row | Sequence | protein stability index [1] | protein stability index (genetic background: wild type)
64 | AKYALLEVLKVS [YOR102W C-terminal 12 aa] | 0.581 ± 0.0095 | 0.187 ± 0.017
65 | STIRRLREMVEA [RPL43A C-terminal 12 aa] | 0.547 ± 0.013 | 0.539 ± 0.028
66 | PIKGGDKASSEL [ATG5 C-terminal 12 aa] | 0.679 ± 0.0085 | 0.6877 ± 0.0045
67 | RVVDLIEYVAKA [TDH1 C-terminal 12 aa] | 0.6636 ± 0.0045 | 0.703 ± 0.055
68 | PGWDFNVQIFAI [HRD3 C-terminal 12 aa] | 0.618 ± 0.005 | 0.607 ± 0.0086
69 | RQNTLSLWRYRK [RPL15A C-terminal 12 aa] | 0.682 ± 0.0084 | 0.682 ± 0.039
70 | VKEYYKKSDVGR [ATG9 C-terminal 12 aa] | 0.7026 ± 0.004 | 0.66 ± 0.011
71 | KFDKALYKKTTG [YMR206W C-terminal 12 aa] | 0.712 ± 0.038 | 0.669 ± 0.03
72 | YNSELVATKDIQ [PNT1 C-terminal 12 aa] | 0.703 ± 0.012 | 0.7242 ± 0.0066
73 | KHDVLSTLPHNN [SKO1 C-terminal 12 aa] | 0.7043 ± 0.0056 | 0.687 ± 0.011
74 | YISKAGSYEVRY [APM4 C-terminal 12 aa] | 0.68349 ± 0.00019 | 0.666 ± 0.03
75 | HRSFFKDIIPEL [KIN82 C-terminal 12 aa] | 0.723 ± 0.013 | 0.693 ± 0.022
76 | NKLLDKESVSED [YLR046C C-terminal 12 aa] | 0.709 ± 0.027 | 0.711 ± 0.11
77 | VKDIHGRIPEML [AXL2 C-terminal 12 aa] | 0.6952 ± 0.0058 | 0.694 ± 0.015
78 | EKKRVLNAVCGL [YLR412C-A C-terminal 12 aa] | 0.69 ± 0.016 | 0.658 ± 0.021
79 | LCQHYIGWCPFW [TOR1 C-terminal 12 aa] | 0.7144 ± 0.0024 | 0.687 ± 0.011
80 | LPNVPTVAYVII [YNL319W C-terminal 12 aa] | 0.6334 ± 0.0054 | 0.664 ± 0.024
81 | LQARLNTLKKQT [DID4 C-terminal 12 aa] | 0.681 ± 0.049 | 0.604 ± 0.0095
82 | SSIFVRVYKFWC [BAP3 C-terminal 12 aa] | 0.698 ± 0.018 | 0.716 ± 0.096
